According to publication PMC2253636:

Biological target: IEk on the surface of CH27 murine B-cell lymphoma cells (mouse (endogenous in CH27))
Assay: flow cytometry on cells; CH27 cells incubated with 1 mM biotinylated peptide for 20 h at 37 °C, washed, stained with streptavidin-Cy5; occupancy of IEk calculated against cells stained with 14-4-4s-bio and streptavidin-Cy5

“biotinylated ER60 peptide (from UniProt P27773 448-461)” was tested, and the percent of IEk molecules occupied was 17%.
